T1: Mtb Ku (from Ku-HIS, TEV-cleaved) (Mycobacterium tuberculosis, UniProt A5U0X7 1-273)
T1 sequence: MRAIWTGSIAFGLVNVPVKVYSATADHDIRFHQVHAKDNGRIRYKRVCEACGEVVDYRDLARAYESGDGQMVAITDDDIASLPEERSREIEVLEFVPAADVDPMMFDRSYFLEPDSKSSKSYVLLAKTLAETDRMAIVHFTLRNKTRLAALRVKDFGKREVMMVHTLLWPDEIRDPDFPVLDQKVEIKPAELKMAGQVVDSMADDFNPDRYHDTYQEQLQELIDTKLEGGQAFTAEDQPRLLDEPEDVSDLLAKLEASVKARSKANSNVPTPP

T2: Mtb Ku released from RFP-Ku by TEV (Mycobacterium tuberculosis, UniProt A5U0X7 1-273)
T2 sequence: T1 sequence

B1: 32/20dT DNA (called 30 bp/20 dT in legends) (dsDNA)
DNA 1: GCCCTGCTGCCGACCAACGATGGTTACATTCC
DNA 2: GGAATGTAACCATCGTTGGTCGGCAGCAGGGCTTTTTTTTTTTTTTTTTTTT
B2: 50 bp blunt end (dsDNA)
DNA 1: GCTAAGTCATCGTCTGTCGATCGATCTCTCGAGTAGTACAGGTCTAGAGG
DNA 2: CCTCTAGACCTGTACTACTCGAGAGATCGATCGACAGACGATGACTTAGC

Key:
[1] = target: T1, Mtb Ku (from Ku-HIS, TEV-cleaved); experiment: EMSA
[2] = target: T2, Mtb Ku released from RFP-Ku by TEV; experiment: EMSA

Binder	binding result [1]	binding result [2]
B1	binds	binds
B2	binds	

Source: paper doi:10.64898/2025.12.16.694593 (bioRxiv, 2025)
